According to patent US20250381289A1 (Genmab, published 2025):

Assays:
[1] = target: T1, EGFR on EGFR and cMET co-expressed tumor cell lines (UniProt P00533 25-1210, limits assumed); test: flow cytometry, EBC-1 cells (co-express EGFR and cMET; both arms contribute)
T1 construct: whole, on cells
Procedure: (§1) EBC-1 was cultured with DMEM medium (Gibco, Cat #C11995500BT) containing 10% FBS. […] Each antibody was incubated with different cell lines (1×10⁵ cells/well) for 30 min in 0.2 mL FACS buffer (1×PBS with 0.1% BSA) at 4° C. After wash, cells were incubated with 100 μL PE-conjugated anti human Fc (Abcam, Ab98596, 1:500 dilution) for 30 min at 4° C. After wash with PBS, cells were resuspended in FACS buffer and analyzed by flow cytometer (Beckman, CytoFLEX).

[2] = target: T2, cMET on EGFR and cMET co-expressed tumor cell lines (UniProt P08581 25-1390, limits assumed); test: as above
T2 construct: whole, on cells
Target sequence in this assay (P08581 25-1390 limits assumed): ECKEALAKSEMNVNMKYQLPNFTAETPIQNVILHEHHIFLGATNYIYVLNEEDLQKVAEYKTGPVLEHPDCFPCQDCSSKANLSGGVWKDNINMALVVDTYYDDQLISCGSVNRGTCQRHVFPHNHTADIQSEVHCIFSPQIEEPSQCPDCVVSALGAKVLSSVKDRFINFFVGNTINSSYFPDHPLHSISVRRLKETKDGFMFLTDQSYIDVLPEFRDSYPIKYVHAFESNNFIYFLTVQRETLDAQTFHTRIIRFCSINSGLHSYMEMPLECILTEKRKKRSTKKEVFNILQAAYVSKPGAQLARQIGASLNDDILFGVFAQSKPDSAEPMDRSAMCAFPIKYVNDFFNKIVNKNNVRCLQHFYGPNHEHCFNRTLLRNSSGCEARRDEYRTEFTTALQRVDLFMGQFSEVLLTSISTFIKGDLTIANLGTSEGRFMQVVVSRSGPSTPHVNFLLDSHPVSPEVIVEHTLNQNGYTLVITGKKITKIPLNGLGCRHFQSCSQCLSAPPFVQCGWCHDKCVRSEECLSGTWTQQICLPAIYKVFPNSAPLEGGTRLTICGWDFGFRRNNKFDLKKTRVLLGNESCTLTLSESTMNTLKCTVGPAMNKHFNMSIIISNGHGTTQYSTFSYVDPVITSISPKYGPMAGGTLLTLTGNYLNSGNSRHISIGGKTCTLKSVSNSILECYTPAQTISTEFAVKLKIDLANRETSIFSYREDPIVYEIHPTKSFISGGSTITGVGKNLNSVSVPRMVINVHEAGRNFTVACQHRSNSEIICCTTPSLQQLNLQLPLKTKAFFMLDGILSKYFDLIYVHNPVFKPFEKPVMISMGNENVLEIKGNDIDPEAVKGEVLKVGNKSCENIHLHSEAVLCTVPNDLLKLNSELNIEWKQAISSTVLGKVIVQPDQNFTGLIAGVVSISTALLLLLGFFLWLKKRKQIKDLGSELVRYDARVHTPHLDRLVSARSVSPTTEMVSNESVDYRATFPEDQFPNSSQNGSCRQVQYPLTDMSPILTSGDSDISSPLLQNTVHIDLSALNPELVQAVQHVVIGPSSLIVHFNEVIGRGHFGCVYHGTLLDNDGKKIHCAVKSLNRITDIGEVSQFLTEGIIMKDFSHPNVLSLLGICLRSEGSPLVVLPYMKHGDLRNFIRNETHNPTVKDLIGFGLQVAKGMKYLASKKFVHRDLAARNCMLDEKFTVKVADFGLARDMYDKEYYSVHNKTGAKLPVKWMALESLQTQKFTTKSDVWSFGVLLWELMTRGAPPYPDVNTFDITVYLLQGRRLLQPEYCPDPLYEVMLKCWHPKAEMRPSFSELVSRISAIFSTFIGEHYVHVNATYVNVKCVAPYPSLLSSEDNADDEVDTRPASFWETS
Procedure: as §1

[3] = target: T1, EGFR on EGFR and cMET co-expressed …; test: flow cytometry on CAL-27 cells (co-express EGFR and cMET), PE anti-human Fc; signal of the whole bispecific, not resolved by arm
Human cMET = target: T3, Human cMET (human); test: ELISA, coated human cMET, anti-human Fc-HRP
T3 construct: recombinant protein; also called human cMET recombinant protein
T3 sequence (P08581 whole entry): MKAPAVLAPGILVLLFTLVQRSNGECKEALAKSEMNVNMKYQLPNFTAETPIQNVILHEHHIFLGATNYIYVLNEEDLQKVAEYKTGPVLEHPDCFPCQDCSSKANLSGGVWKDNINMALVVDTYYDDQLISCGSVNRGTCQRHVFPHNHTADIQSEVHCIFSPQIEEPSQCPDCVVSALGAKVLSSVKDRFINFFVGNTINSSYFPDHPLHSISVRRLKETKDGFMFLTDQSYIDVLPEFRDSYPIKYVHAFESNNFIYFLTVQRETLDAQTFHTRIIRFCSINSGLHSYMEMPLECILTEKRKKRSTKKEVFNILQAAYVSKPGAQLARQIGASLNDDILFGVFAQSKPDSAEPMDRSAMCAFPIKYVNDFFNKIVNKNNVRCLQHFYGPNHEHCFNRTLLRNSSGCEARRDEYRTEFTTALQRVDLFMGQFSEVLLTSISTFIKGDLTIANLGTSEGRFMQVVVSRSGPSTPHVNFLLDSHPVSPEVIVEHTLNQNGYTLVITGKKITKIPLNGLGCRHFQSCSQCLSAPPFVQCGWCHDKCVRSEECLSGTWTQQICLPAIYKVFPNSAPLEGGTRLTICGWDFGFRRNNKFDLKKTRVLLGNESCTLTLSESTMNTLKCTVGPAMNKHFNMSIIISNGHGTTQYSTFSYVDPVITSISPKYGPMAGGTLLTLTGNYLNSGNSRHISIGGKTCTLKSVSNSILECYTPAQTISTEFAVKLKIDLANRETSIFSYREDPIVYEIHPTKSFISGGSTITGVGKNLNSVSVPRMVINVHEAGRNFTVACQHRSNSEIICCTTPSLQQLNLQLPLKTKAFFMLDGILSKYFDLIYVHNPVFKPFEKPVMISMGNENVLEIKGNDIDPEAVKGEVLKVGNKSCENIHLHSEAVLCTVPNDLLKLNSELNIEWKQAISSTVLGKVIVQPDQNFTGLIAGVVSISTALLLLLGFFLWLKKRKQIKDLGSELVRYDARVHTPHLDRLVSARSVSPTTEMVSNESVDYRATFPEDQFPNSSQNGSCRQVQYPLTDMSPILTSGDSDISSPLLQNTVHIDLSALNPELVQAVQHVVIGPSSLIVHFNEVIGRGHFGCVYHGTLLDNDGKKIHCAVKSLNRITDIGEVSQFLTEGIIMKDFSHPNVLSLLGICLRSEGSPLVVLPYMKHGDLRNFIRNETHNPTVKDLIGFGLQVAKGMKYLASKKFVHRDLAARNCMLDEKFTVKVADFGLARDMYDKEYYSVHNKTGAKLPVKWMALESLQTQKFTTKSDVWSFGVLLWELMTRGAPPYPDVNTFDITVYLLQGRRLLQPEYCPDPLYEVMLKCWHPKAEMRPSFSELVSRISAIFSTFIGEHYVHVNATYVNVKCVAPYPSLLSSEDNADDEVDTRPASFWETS
Procedure: (§2) Binding specificity was tested by ELISA according to the standard protocol. Specifically, 96-well plates were coated with 100 ng/well human EGFR, human HER2, human HER3, human HER4, human cMET, human Sema3A recombinant protein in PBS, incubated overnight at 4° C. Plates were washed twice by TBS+0.05% Tween20. 200 μL blocking buffer (2% BSA in PBS) was added to each well and incubated at 37° C. for 2 h. After wash, Serial diluted antibodies were added to the ELISA plate with 100 μL per well and incubated for 1 h at room temperature. Then plates were washed for 3 times. HRP conjugated anti-human Fc antibody solution (Abcam, ab98624) was added to the plate with 100 μL per well. The plates were incubated at room temperature for 1 h and then washed for 3 times. […] Finally, read the absorbance at A₄₅₀ and A₆₃₀.

[4] = target: T1, EGFR on EGFR and cMET co-expressed …; test: flow cytometry, A549 cells (co-express EGFR and cMET; both arms contribute)
Procedure: as §1

[5] = target: T2, cMET on EGFR and cMET co-expressed …; test: as above
Procedure: as §1

Human EGFR [6] = target: T4, Human EGFR (human, UniProt P00533); test: ELISA, plate coated with 100 ng/well human EGFR recombinant protein, HRP anti-human Fc, OD450
T4 construct: recombinant protein coated on the ELISA plate; also called human EGFR recombinant protein
Procedure: as §2

[7] = target: T1, EGFR on EGFR and cMET co-expressed …; test: flow cytometry, EBC-1 cells (co-express EGFR and cMET; both arms contribute); remark: listed apart in the source
[8] = target: T2, cMET on EGFR and cMET co-expressed …; test: as above; remark: listed apart in the source
[9] = target: T1, EGFR on EGFR and cMET co-expressed …; test: flow cytometry on EBC-1 cells (co-express EGFR and cMET), PE anti-human Fc; signal of the whole bispecific, not resolved by arm
Procedure: (§3) EBC-1, ACHN and CAL-27 were cultured with DMEM medium (Gibco, Cat #C11995500BT) containing 10% FBS. […] Each antibody was incubated with different cell lines (1×10⁵ cells per well) for 30 mins in 0.2 mL FACS buffer (1×PBS with 0.1% BSA) at 4° C. After wash, cells were incubated with 100 μL PE-conjugated anti human Fc (Abcam, Ab98596, 1:500 dilution) for 30 mins at 4° C. After wash with PBS, cells were resuspended in FACS buffer and analyzed by flow cytometer (Beckman, CytoFLEX).

[10] = target: T2, cMET on EGFR and cMET co-expressed …; test: as above
Procedure: as §3

[11] = target: T1, EGFR on EGFR and cMET co-expressed …; test: flow cytometry, EBC-1 cells (co-express EGFR and cMET; both arms contribute); remark: listed apart in the source
Procedure: (§4) EBC-1 was cultured with DMEM medium (Gibco, Cat #C11995500BT) containing 10% FBS. […] Each antibody was incubated with different cell lines (1×10⁵ cells/well) for 30 mins in 0.2 mL FACS buffer (1×PBS with 0.1% BSA) at 4° C. After wash, cells were incubated with 100 μL PE-conjugated anti human Fc (Abcam, Ab98596, 1:500 dilution) for 30 mins at 4° C. After wash with PBS, cells were resuspended in FACS buffer and analyzed by flow cytometer (Beckman, CytoFLEX).

[12] = target: T2, cMET on EGFR and cMET co-expressed …; test: as above; remark: listed apart in the source
Procedure: as §4

[13] = target: T1, EGFR on EGFR and cMET co-expressed …; test: flow cytometry, NCI-N87 cells (co-express EGFR and cMET; both arms contribute)
Procedure: as §4

[14] = target: T2, cMET on EGFR and cMET co-expressed …; test: as above
Target sequence in this assay (P08581 25-1390 limits assumed): as the sequence (P08581 25-1390 limits assumed) above
Procedure: as §4

Human EGFR [15] = target: T5, Human EGFR (human, UniProt P00533); test: ELISA, coated human EGFR, anti-human Fc-HRP
T5 construct: recombinant protein; also called human EGFR recombinant protein
Procedure: as §2

[16] = target: T1, EGFR on EGFR and cMET co-expressed …; test: flow cytometry, SNU-5 cells (co-express EGFR and cMET; both arms contribute)
[17] = target: T2, cMET on EGFR and cMET co-expressed …; test: as above
Target sequence in this assay (P08581 25-1390 limits assumed): as above

[18] = target: T1, EGFR on EGFR and cMET co-expressed …; test: flow cytometry, MKN-45 cells (co-express EGFR and cMET; both arms contribute)
Procedure: as §4

[19] = target: T2, cMET on EGFR and cMET co-expressed …; test: as above
Target sequence in this assay (P08581 25-1390 limits assumed): as above
Procedure: as §4

B1: Amivantamab (bispecific antibody, human IgG1, kappa)
heavy 1: not shown
light 1: not shown
heavy 2: not shown
light 2: DIQMTQSPSSVSASVGDRVTITCRASQGISNWLAWFQHKPGKAPKLLIYAASSLLSGVPSRFSGSGSGTDFTLTISSLQPEDFATYYCQQANSFPITFGQGTRLEIKRTVAAPSVFIFPPSDEQLKSGTASVVCLLNNFYPREAKVQWKVDNALQSGNSQESVTEQDSKDSTYSLSSTLTLSKADYEKHKVYACEVTHQGLSSPVTKSFNRGEC
notes: Bispecific positive control
EC50 (read off the curve) [1]: ~1 nM | EC50 (read off the curve) [2]: ~1 nM | EC50 (read off the curve) [3]: ~3 nM | EC50 (read off the curve) (Human cMET): ~1 nM | EC50 (read off the curve) [4]: ~1 nM | EC50 (read off the curve) [5]: ~1 nM | EC50 (read off the curve) (Human EGFR [6]): ~0.4 nM | EC50 (read off the curve) [7]: ~1 nM | EC50 (read off the curve) [8]: ~1 nM | EC50 (read off the curve) [9]: ~2 nM | EC50 (read off the curve) [10]: ~2 nM | EC50 (read off the curve) [11]: ~2 nM | EC50 (read off the curve) [12]: ~2 nM | EC50 (read off the curve) [13]: ~2 nM | EC50 (read off the curve) [14]: ~2 nM | EC50 (read off the curve) (Human EGFR [15]): ~0.6 nM | EC50 (read off the curve) [16]: ~2 nM | EC50 (read off the curve) [17]: ~2 nM | EC50 (read off the curve) [18]: ~2 nM | EC50 (read off the curve) [19]: ~2 nM
